Measurements: publication PMC3229523, “Identification of Lactoferricin B Intracellular Targets Using an Escherichia coli Proteome Chip” (PLoS ONE, 2011)
Ends that are not written are not given here. * marks the point of attachment. Biotin = O=C1N[C@H]2[C@H](CS[C@H]2CCCCC(=O)*)N1

Assays:
Assay in all cases: peptide or protein array; E. coli proteome chip: purified His-tagged proteins printed in duplicate on Fullmoon slides, blocked with 1% BSA; 10 nM N-terminal biotinylated LfcinB with 1% BSA, room temperature, 1 h; detected with DyLight 649-labeled streptavidin, ratio to DyLight 549-labeled anti-His antibody; ProCAT normalisation, local cut-off; triplicate chips
Conditions in all cases: both partners purified
YrfI = biological target: T1, YrfI (E. coli K-12, UniProt P0A6Y5 1-292)
T1 construct: YrfI, E. coli K-12
T1 sequence (looked up): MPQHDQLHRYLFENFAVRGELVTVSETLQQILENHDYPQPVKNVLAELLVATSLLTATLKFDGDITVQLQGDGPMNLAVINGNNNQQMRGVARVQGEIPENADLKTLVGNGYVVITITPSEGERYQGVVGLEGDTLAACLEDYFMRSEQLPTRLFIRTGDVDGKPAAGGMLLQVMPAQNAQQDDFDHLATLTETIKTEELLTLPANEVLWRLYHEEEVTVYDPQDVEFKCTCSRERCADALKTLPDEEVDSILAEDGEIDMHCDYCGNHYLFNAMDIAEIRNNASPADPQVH

CreB = biological target: T2, CreB (E. coli K-12, UniProt P08368 1-229)
T2 construct: CreB, E. coli K-12
T2 sequence (looked up): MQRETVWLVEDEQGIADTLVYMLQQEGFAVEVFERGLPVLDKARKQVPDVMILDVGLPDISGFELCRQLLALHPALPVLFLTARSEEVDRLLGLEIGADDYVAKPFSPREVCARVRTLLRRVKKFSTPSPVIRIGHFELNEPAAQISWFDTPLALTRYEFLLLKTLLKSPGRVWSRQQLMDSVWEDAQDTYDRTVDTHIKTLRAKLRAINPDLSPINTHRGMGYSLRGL

YdiT = biological target: T3, YdiT (E. coli K-12, UniProt P77714 1-97)
T3 construct: YdiT, E. coli K-12
T3 sequence (looked up): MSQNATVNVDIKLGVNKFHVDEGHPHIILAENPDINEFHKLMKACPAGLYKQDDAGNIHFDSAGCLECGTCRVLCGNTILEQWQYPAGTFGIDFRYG

YdcC = biological target: T4, YdcC (E. coli K-12, UniProt P28917 1-378)
T4 construct: YdcC, E. coli K-12
T4 sequence (looked up): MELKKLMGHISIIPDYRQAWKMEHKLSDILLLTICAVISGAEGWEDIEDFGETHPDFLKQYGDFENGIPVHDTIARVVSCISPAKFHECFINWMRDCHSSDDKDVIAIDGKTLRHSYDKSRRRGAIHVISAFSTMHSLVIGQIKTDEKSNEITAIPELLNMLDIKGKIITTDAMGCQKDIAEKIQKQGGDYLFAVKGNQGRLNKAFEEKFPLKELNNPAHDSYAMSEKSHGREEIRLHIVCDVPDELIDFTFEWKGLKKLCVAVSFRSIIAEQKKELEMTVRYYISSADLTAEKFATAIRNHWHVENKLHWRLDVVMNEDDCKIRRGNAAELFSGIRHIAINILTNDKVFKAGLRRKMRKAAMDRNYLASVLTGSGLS

XerB = biological target: T5, XerB (E. coli K-12, UniProt P68767 1-503)
T5 construct: XerB, E. coli K-12
T5 sequence (looked up): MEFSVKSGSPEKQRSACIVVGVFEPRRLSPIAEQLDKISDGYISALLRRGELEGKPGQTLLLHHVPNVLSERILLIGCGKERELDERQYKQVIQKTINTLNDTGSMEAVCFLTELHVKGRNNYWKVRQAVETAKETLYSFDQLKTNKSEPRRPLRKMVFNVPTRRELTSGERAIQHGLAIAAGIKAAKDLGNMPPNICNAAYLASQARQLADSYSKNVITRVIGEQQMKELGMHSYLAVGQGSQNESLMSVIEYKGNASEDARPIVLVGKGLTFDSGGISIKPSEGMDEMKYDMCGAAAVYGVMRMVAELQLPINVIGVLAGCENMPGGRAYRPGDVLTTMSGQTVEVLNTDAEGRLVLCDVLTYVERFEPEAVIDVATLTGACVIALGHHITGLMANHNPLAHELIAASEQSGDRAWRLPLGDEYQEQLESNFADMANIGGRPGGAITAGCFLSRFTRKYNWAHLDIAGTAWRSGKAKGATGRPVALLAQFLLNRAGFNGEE

HyaF = biological target: T6, HyaF (E. coli K-12, UniProt P19932 1-285)
T6 construct: HyaF, E. coli K-12
T6 sequence (looked up): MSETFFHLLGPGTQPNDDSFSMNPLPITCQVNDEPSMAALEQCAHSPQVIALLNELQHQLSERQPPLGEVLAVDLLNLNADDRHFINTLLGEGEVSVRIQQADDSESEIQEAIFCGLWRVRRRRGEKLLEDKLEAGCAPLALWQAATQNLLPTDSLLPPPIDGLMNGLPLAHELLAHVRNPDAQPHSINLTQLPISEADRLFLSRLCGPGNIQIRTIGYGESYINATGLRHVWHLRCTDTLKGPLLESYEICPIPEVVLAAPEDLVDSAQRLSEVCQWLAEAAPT

Measured: binding result

B1: N-terminal biotinylated Lactoferricin B (peptide, UniProt P24627 36-60, looked up)
peptide: Biotin-FKCRRWQWRMKKLGAPSITCVRRAF
modifications: ends and bridges not checked
notes: lactoferricin B (LfcinB), cationic antimicrobial peptide of 25 amino acids; also called biotinylated LfcinB; biotin-labeled LfcinB; source: bought: Kelowna Inc
binds: all assays above
